These results are taken from PMC10140165, “Cryo-EM reveals the membrane-binding phenomenon of EspB, a virulence factor of the mycobacterial type VII secretion system” (The Journal of Biological Chemistry, 2023).

This data set deals with the molecule itself. Put plainly: cryo-EM 2D class averages.

Values joined by “and” are separate entries in the source; they are usually repeats but may differ in a detail not shown here. Equal values may be shown once.

B1: EspB_(1–332) (domain or fragment)
chain: MTQSQTVTVDQQEILNRANEVEAPMADPPTDVPITPCELTAAKNAAQQLVLSADNMREYLAAGAKERQRLATSLRNAAKAYGEVDEEAATALDNDGEGTVQAESAGAVGGDSSAELTDTPRVATAGEPNFMDLKEAARKLETGDQGASLAHFADGWNTFNLTLQGDVKRFRGFDNWEGDAATACEASLDQQRQWILHMAKLSAAMAKQAQYVAQLHVWARREHPTYEDIVGLERLYAENPSARDQILPVYAEYQQRSEKVLTEYNNKAALEPVNPPKPPPAIKIDPPPPPQEQGLIPGFLMPPSDGSGVTPGTGMPAAPMVPPTGSPGGGLP
One may read the stoichiometry N as the number of molecules, sites or subunits per partner or assembly. Regarding B1, the “stoichiometry N” value was 7 and 6.
